Assay results taken from PMC3079584, “A Cytoplasmic Complex Mediates Specific mRNA Recognition and Localization in Yeast”.

Tests used:
Puf6p = Puf6p (Saccharomyces cerevisiae, UniProt Q04373 2-656); assay: EMSA; EMSA: 20 mM HEPES pH 7.8, 200 mM NaCl, 2 mM MgCl2, 2 mM DTT, 4% glycerol, 30 or 100 ug/ml yeast tRNA, 5 nM RNA, 20 C; filter binding: 20 mM HEPES pH 7.4-7.5 (7.9 with She3p), 150 mM NaCl, 2 mM MgCl2, 2 mM DTT, 30 ug/ml yeast tRNA, 0.5 nM RNA; pull-down: HNMD buffer, 4 C; conditions: protein: recombinant; tags: GST tag (cleaved for EMSA; retained in GST pull-downs); label: 32P; stem-loop
She2p (ΔhE);She3p = She2p (ΔhE);She3p (Saccharomyces cerevisiae;Saccharomyces …, UniProt P36068;P38272 1-246;1-425, del174-183|); assay: EMSA; no mobility shift; EMSA: 20 mM HEPES pH 7.8, 200 mM NaCl, 2 mM MgCl2, 2 mM DTT, 4% glycerol, 30 or 100 ug/ml yeast tRNA, 5 nM RNA, 20 C; filter binding: 20 mM HEPES pH 7.4-7.5 (7.9 with She3p), 150 mM NaCl, 2 mM MgCl2, 2 mM DTT, 30 ug/ml yeast tRNA, 0.5 nM RNA; pull-down: HNMD buffer, 4 C; conditions: protein: recombinant;recombinant; tags: GST tag (PreScission-cleaved);C-terminal His6; chain copies: 4;2; label: 32P; stem-loop
She2p (ΔhE);She3p, sequence (P36068 other isoform, or with tags, fused parts or gaps del174-183| | mutant): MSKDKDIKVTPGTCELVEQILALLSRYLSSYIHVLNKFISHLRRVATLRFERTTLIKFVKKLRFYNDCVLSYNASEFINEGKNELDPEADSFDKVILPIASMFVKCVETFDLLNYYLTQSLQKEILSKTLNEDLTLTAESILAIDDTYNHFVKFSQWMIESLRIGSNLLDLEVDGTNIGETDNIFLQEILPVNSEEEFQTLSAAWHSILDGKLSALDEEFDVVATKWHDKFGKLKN

Puf6p, sequence (Q04373 2-656): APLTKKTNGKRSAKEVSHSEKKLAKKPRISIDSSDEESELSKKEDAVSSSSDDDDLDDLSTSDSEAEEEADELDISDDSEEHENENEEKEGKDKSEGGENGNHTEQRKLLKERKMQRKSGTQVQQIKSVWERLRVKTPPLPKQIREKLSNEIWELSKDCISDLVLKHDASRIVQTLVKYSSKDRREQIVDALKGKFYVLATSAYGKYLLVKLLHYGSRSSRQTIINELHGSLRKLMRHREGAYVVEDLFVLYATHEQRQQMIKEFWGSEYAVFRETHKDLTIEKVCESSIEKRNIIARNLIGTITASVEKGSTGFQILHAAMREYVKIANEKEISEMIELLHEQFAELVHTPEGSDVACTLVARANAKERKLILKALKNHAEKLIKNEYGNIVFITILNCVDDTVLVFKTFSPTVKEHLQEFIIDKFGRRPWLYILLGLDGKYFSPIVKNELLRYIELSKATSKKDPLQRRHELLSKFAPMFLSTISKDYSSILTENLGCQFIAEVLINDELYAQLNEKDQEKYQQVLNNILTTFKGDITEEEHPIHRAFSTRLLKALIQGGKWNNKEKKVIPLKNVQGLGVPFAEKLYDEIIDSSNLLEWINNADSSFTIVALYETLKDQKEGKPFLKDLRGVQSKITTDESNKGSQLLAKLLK

B1: ASH1 E3-118 (structured_RNA)
RNA: GAGACAGUAGAGAAUUGAUACAUGGAUAACUGAAUCUCUUUCAACUAAUAAGAGACAUUAUCACGAAACAAUUGUACAUUUCUCUCCUUGUCUGUGCUAAAUAAACUACAAAUAAAAA
binding result (Puf6p): binds
binding result (She2p (ΔhE);She3p): no binding
